Laboratory results published in patent US20110262445A1 (CEPHALON AUSTRALIA, published 2011).
Where a chain is given by its changes, count along the chain named.

T1: human IL-12 (human, UniProt P29460 23-328; P29459 23-219)
T1 construct: Recombinant (Peprotech); FLAG-tagged IL-12 in the flow cytometry assays, biotinylated in the IL-12Rβ2 assay; also called hIL-12
T1 sequence 1: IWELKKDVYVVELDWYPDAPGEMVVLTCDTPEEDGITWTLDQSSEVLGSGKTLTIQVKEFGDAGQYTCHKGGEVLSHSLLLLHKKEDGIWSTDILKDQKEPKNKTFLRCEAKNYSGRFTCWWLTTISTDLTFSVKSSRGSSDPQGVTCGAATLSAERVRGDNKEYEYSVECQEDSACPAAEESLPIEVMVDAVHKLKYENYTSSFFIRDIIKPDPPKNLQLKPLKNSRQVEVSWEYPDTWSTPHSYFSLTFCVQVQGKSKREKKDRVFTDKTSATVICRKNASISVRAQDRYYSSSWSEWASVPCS
T1 sequence 2: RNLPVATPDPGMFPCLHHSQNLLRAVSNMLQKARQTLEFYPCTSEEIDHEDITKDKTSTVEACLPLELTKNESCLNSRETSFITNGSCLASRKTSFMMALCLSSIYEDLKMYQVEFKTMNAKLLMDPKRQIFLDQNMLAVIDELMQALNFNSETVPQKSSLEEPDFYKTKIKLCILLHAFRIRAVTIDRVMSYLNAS

T2: human IL-23 (human, UniProt P29460 23-328; Q9NPF7 20-189)
T2 construct: Recombinant (Ebioscience); HIS-tagged in flow cytometry, biotinylated in some assays; also called hIL-23; rhIL-23
T2 sequence 1: T1 sequence 1
T2 sequence 2: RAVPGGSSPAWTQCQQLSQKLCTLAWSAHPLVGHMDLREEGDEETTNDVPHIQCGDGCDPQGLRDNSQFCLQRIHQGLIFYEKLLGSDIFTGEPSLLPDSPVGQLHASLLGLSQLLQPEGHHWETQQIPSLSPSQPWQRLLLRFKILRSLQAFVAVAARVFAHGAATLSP

B1: Antibody 144 (antibody, human IgG1, kappa, V domains shown)
VH: EVQLVQSGAEVKKPGATVKISCKASGYTFSDYYLHWVRQAPEKGLEWMGWIDPENGDTEYAPKFQGRVTITADTSTDTGYLELSSLRSEDTAVYYCAANKELRYFDVWGQGTLVTVSS
VL: DIQMTQSPSSVSASVGDRVTITCRASQSISINLHWYQQKPGEAPKLLIYFASQSISGVPSRFSGSGSGTDFSLTINSLQPEDFARYYCQQSNSFPLTFGGGTKVEIKR
B2: Antibody 146 (antibody, human IgG1, kappa, V domains shown)
VH: B1 VH
VL: B1 VL with E42K, V58I
B3: Antibody 134 (antibody, human IgG1, kappa, V domains shown)
VH: B1 VH
VL: B1 VL with E42K, A43S, R85T
B4: Antibody 145 (antibody, human IgG1, kappa, V domains shown)
VH: B1 VH
VL: B1 VL with E42K, A43S
B5: Antibody 143 (antibody, human IgG1, kappa, V domains shown)
VH: B1 VH
VL: B1 VL with G41H, E42K
B6: Antibody 142 (antibody, human IgG1, kappa, V domains shown)
VH: B1 VH
VL: B1 VL with P40S, E42K
B7: Antibody 133 (antibody, human IgG1, kappa, V domains shown)
VH: B1 VH
VL: B1 VL with R85T
B8: Antibody 148 (antibody, human IgG1, kappa, V domains shown)
VH: B1 VH
VL: B1 VL with E42K, Y87F
B9: Antibody 141 (antibody, human IgG1, kappa)
heavy chain: not shown
light chain: DIQMTQSPSSVSASPGDRVTITCRASQSISINLHWYQQKPGKAPKLLIYFASQSISGVPSRFSGSGSGTDFSLTINSLQPEDFARYYCQQSNSFPLTFGGGTKVEIKRTVAAPSVFIFPPSDEQLKSGTASVVCLLNNFYPREAKVQWKVDNALQSGNSQESVTEQDSKDSTYSLSSTLTLSKADYEKHKVYACEVTHQGLSSPVTKSFNRGEC
B10: Antibody 137 (antibody, human IgG1, kappa, V domains shown)
VH: B1 VH
VL: B1 VL with E42K, R85T, Y87F
B11: Antibody 147 (antibody, human IgG1, kappa, V domains shown)
VH: B1 VH
VL: B1 VL with E42K, P80T
B12: Antibody 132 (antibody, human IgG1, kappa, V domains shown)
VH: B1 VH
VL: B1 VL with G41H, E42K, R85T
B13: Antibody 140 (antibody, human IgG1, kappa)
heavy: not shown
light: B9 light chain with S14T, P15V
B14: Antibody 131 (antibody, human IgG1, kappa, V domains shown)
VH: B1 VH
VL: B1 VL with P40S, E42K, R85T
B15: Antibody 135 (antibody, human IgG1, kappa, V domains shown)
VH: B1 VH
VL: B1 VL with E42K, V58I, R85T
B16: Antibody 60 (antibody, human IgG1, kappa, V domains shown)
VH: B1 VH with A40R, R67K
VL: B1 VL with E42K, Y49K, R85T
B17: Antibody 67 (antibody, human IgG1, kappa, V domains shown)
VH: B1 VH with A40R, E42G
VL: B1 VL with E42K
B18: Antibody 61 (antibody, human IgG1, kappa, V domains shown)
VH: B1 VH with E42G
VL: B1 VL with E42K, S65Y, R85T
B19: Antibody 66 (antibody, human IgG1, kappa, V domains shown)
VH: B1 VH with E42G
VL: B1 VL with E42K
B20: Antibody 63 (antibody, human IgG1, kappa, V domains shown)
VH: B1 VH
VL: B1 VL with E42K, S65Y, R85T
B21: Antibody 65 (antibody, human IgG1, kappa, V domains shown)
VH: B1 VH with A40R, R67K
VL: B1 VL with E42K, S65Y, R85T
B22: Antibody 73 (antibody, human IgG1, kappa, V domains shown)
VH: B1 VH
VL: B1 VL with E42K, Y49K, S65Y
B23: Antibody 64 (antibody, human IgG1, kappa, V domains shown)
VH: B1 VH with E42G, R67K
VL: B1 VL with E42K, S65Y, R85T
B24: Antibody 72 (antibody, human IgG1, kappa, V domains shown)
VH: B1 VH with A40R, E42G
VL: B1 VL with E42K, Y49K, S65Y
B25: Antibody 62 (antibody, human IgG1, kappa, V domains shown)
VH: B1 VH with A40R, E42G
VL: B1 VL with E42K, S65Y, R85T
B26: Antibody 74 (antibody, human IgG1, kappa, V domains shown)
VH: B1 VH with E42G, R67K
VL: B1 VL with E42K, Y49K, S65Y
B27: Antibody 71 (antibody, human IgG1, kappa, V domains shown)
VH: B1 VH with E42G
VL: B1 VL with E42K, Y49K, S65Y
B28: Antibody 70 (antibody, human IgG1, kappa, V domains shown)
VH: B1 VH with A40R, R67K
VL: B1 VL with E42K
B29: Antibody 69 (antibody, human IgG1, kappa, V domains shown)
VH: B1 VH with E42G, R67K
VL: B1 VL with E42K
B30: Antibody 75 (antibody, human IgG1, kappa, V domains shown)
VH: B1 VH with A40R, R67K
VL: B1 VL with E42K, Y49K, S65Y

Target: T1, human IL-12
Experiment: ELISA, coated IL-12
Summary of the method: (§1)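 Cytokine at 1 μg/mL in carbonate buffer pH 9.6 was coated overnight at 4° C onto Maxisorp plates and blocked with 1% BSA in PBS for 1 hour at 25° C. Antibody titrations were bound for 1 hour at 25° C, then detected with goat anti-human IgG or anti-murine immunoglobulin HRP (1:2000, 1 hour). TMB was developed and stopped with 1M HCl. The binding result is absorbance at 450 nm (reference 620 nm).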

binding result	Binder
binds	B1
binds	B2
binds	B3
binds	B4
binds	B5
binds	B6
binds	B7
binds	B8
binds	B9
binds	B10
binds	B11
binds	B12
binds	B13
binds	B14
binds	B15

Target: T2, human IL-23
Experiment: ELISA, coated IL-23
Summary of the method: as §1

binding result	Binder
binds	B1
binds	B2
binds	B3
binds	B4
binds	B5
binds	B6
binds	B7
binds	B8
binds	B9
binds	B10
binds	B11
binds	B12
binds	B13
binds	B14
binds	B15

Target: T1, human IL-12
Experiment: ELISA, coated IL-12
Remark: another data set of the same source
Summary of the method: as §1

binding result	Binder
binds	B16
binds	B17
binds	B18
binds	B19
binds	B20
binds	B21
binds	B22
binds	B23
binds	B24
binds	B25
binds	B26
binds	B27
binds	B28
binds	B29
binds	B30

Target: T2, human IL-23
Experiment: ELISA, coated IL-23
Remark: another data set of the same source
Summary of the method: as §1

binding result	Binder
binds	B16
binds	B17
binds	B18
binds	B19
binds	B20
binds	B21
binds	B22
binds	B23
binds	B24
binds	B25
binds	B26
binds	B27
binds	B28
binds	B29
binds	B30
